Numbering of substitutions follows the chain as printed.
T1: human FcγRIIa type R (131Arg) extracellular domain with C-terminal His tag (human, UniProt P12318 34-217)
T1 sequence (looked up): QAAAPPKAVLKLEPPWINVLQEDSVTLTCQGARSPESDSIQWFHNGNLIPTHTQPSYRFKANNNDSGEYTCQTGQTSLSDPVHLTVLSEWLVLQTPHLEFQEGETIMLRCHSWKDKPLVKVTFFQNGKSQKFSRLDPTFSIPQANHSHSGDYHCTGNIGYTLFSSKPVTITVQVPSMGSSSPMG

T2: human FcγRIIb extracellular domain with C-terminal His tag (human, UniProt P31994 43-217)
T2 sequence (looked up): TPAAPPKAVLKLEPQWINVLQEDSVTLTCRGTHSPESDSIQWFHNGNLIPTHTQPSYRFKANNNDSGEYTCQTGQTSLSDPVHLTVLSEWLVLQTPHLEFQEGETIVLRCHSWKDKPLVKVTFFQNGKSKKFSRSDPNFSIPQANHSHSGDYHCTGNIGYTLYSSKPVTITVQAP

T3: human FcγRIIb extracellular domain with C-terminal His tag (human, UniProt P31994 43-217)
T3 sequence (looked up): T2 sequence (looked up)

T4: human FcγRIIb extracellular domain with C-terminal His tag (human, UniProt P31994 43-217)
T4 sequence (looked up): T2 sequence (looked up)

B1: IL6R-BP265/IL6R-L (antibody, human IgG1, kappa)
heavy: QVQLQESGPGLVKPSETLSLTCAVSGHSISHDHAWSWVRQPPGEGLEWIGFISYSGITNYNPSLQGRVTISRDNSKNTLYLQMNSLRAEDTAVYYCARSLARTTAMDYWGEGTLVTVSSASTKGPSVFPLAPSSKSTSGGTAALGCLVKDYFPEPVTVSWNSGALTSGVHTFPAVLQSSGLYSLSSVVTVPSSSLGTQTYICNVNHKPSNTKVDKKVEPKSCDKTHTCPPCPAPELLGDDSVFLFPPKPKDTLMISRTPEVTCVVVDVSEEDGEVKFNWYVDGVEVHNAKTKPREEQDNSTYRVVSVLTVLHQDWLNGKEYKCKVSNKALPRPIEKTISKAKGQPREPQVYTLPPSRDELTKNQVSLTCLVKGFYPSDIAVEWESNGQPENNYKTTPPVLDSDGSFFLYSKLTVDKSRWQQGNVFSCSVMHEALHNHYTQESLSLSP
light: not shown
B2: IL6R-BP911/IL6R-L (antibody, human IgG1, kappa)
heavy: B1 heavy with D239G, E270H, G273P, D298Y, R332K
light: not shown
B3: BP562 (antibody, human IgG1, kappa)
heavy: B1 heavy with E270D, E274D
light: not shown
B4: IL6R-BP539/IL6R-L (antibody, human IgG1, kappa)
heavy: B1 heavy with V266I, S269G, E274P
light: not shown
B5: IL6R-BP499/IL6R-L (antibody, human IgG1, kappa)
heavy: B1 heavy with E235D, V266I, S269A, P398L
light: not shown
B6: IL6R-BP118/IL6R-L (antibody, human IgG1, kappa)
heavy: B1 heavy with D239G, E270H, G273P, D298Y, K328S, R332A
light: not shown
B7: IL6R-BP112/IL6R-L (antibody, human IgG1, kappa)
heavy: B1 heavy with D239G, E270H, D298Y, R332A
light: not shown
B8: IL6R-BP268/IL6R-L (antibody, human IgG1, kappa)
heavy: B1 heavy with E235D, R332A
light: not shown
B9: IL6R-BP551/IL6R-L (antibody, human IgG1, kappa)
heavy: B1 heavy with V266I, E274D
light: not shown
B10: IL6R-BP912/IL6R-L (antibody, human IgG1, kappa)
heavy: B1 heavy with D239G, E270H, G273P, D298Y
light: not shown
B11: IL6R-BP126/IL6R-L (antibody, human IgG1, kappa)
heavy: B1 heavy with D239G, E270H, G273P, D298Y, K328L, R332A
light: not shown
B12: IL6R-BP117/IL6R-L (antibody, human IgG1, kappa)
heavy: B1 heavy with D239G, E270H, G273P, D298Y, K328D, R332A
light: not shown
B13: IL6R-BP136/IL6R-L (antibody, human IgG1, kappa)
heavy: B1 heavy with D239G, E270H, G273P, D298Y, K328A, R332A
light: not shown
B14: BP508 (antibody, human IgG1, kappa)
heavy: B1 heavy with E235D, V266I, S269A, E274P, R332A
light: not shown
B15: IL6R-BP567/IL6R-L (antibody, human IgG1, kappa)
heavy: B1 heavy with E235D, D239G, V266I, S269A, R332A
light: not shown
B16: IL6R-BP110/IL6R-L (antibody, human IgG1, kappa)
heavy: B1 heavy with D239G, E270N, G273P, D298Y, R332A
light: not shown
B17: IL6R-BP550/IL6R-L (antibody, human IgG1, kappa)
heavy: B1 heavy with V266I, S269G, E274D
light: not shown
B18: IL6R-BP102/IL6R-L (antibody, human IgG1, kappa)
heavy: B1 heavy with D239G, S269Q, E270H, G273P, D298Y, R332A
light: not shown
B19: IL6R-BP078/IL6R-L (antibody, human IgG1, kappa)
heavy: B1 heavy with D239G, E270H, G273P, D298Y, R332M
light: not shown
B20: IL6R-2B002/IL6R-L (antibody, human IgG1, kappa)
heavy: B1 heavy with E235D, D239G, E270H, G273P, D298Y, R332A
light: not shown
B21: IL6R-BP565/IL6R-L (antibody, human IgG1, kappa)
heavy: B1 heavy with E235D, S269A
light: not shown
B22: BP509 (antibody, human IgG1, kappa)
heavy: B1 heavy with E235D, V266I, S269A, E274D, R332A
light: not shown
B23: IL6R-BP503/IL6R-L (antibody, human IgG1, kappa)
heavy: B1 heavy with E235D, V266I, S269A, A329G, P398M
light: not shown
B24: IL6R-BP121/IL6R-L (antibody, human IgG1, kappa)
heavy: B1 heavy with D239G, E270H, G273P, D298Y, K328Q, R332A
light: not shown
B25: IL6R-BP500/IL6R-L (antibody, human IgG1, kappa)
heavy: B1 heavy with V266I, S269A, R332A
light: not shown
B26: IL6R-BP511/IL6R-L (antibody, human IgG1, kappa)
heavy: B1 heavy with V266I, S269A, E274P
light: not shown
B27: IL6R-2B172/IL6R-L (antibody, human IgG1, kappa)
heavy: B1 heavy with D239G, E270H, G273P, D298Y, V325M, R332A
light: not shown
B28: IL6R-2B169/IL6R-L (antibody, human IgG1, kappa)
heavy: B1 heavy with D239G, E270H, G273P, D298Y, V325I, R332A
light: not shown
B29: IL6R-BP116/IL6R-L (antibody, human IgG1, kappa)
heavy: B1 heavy with D239G, E270H, G273P, D298Y, K328T, R332A
light: not shown
B30: IL6R-BP100/IL6R-L (antibody, human IgG1, kappa)
heavy: B1 heavy with D239G, S269A, E270H, G273P, D298Y, R332A
light: not shown
B31: IL6R-BP533/IL6R-L (antibody, human IgG1, kappa)
heavy: B1 heavy with E235D, V266I, S269G, P398L
light: not shown
B32: IL6R-BP502/IL6R-L (antibody, human IgG1, kappa)
heavy: B1 heavy with E235D, V266I, S269A, A329G
light: not shown
B33: IL6R-BP106/IL6R-L (antibody, human IgG1, kappa)
heavy: B1 heavy with D239G, E270D, G273P, D298Y, R332A
light: not shown
B34: BP560 (antibody, human IgG1, kappa)
heavy: B1 heavy with D239G, S269G
light: not shown
B35: IL6R-BP494/IL6R-L (antibody, human IgG1, kappa)
heavy: B1 heavy with S269A
light: not shown
B36: IL6R-BP103/IL6R-L (antibody, human IgG1, kappa)
heavy: B1 heavy with D239G, S269V, E270H, G273P, D298Y, R332A
light: not shown
B37: BP563 (antibody, human IgG1, kappa)
heavy: B1 heavy with E235D, E274D
light: not shown
B38: IL6R-2B128/IL6R-L (antibody, human IgG1, kappa)
heavy: B1 heavy with D239G, E270H, G273P, R332A
light: not shown
B39: IL6R-BP536/IL6R-L (antibody, human IgG1, kappa)
heavy: B1 heavy with E235D, V266I, A329G, P398M
light: not shown
B40: IL6R-BP435/IL6R-L (antibody, human IgG1, kappa)
heavy: B1 heavy with E235D, E270D, K328A, I334T
light: not shown
B41: IL6R-BP142/IL6R-L (antibody, human IgG1, kappa)
heavy: B1 heavy with D239G, E270H, G273P, D298Y, K328N, R332A
light: not shown
B42: BP504 (antibody, human IgG1, kappa)
heavy: B1 heavy with E235D, V266I, S269A, E274P, D298Y, R332A
light: not shown
B43: IL6R-BP489/IL6R-L (antibody, human IgG1, kappa)
heavy: B1 heavy with E235D, V266I, S269A, P398M
light: not shown
B44: IL6R-BP568/IL6R-L (antibody, human IgG1, kappa)
heavy: B1 heavy with E235D, D239G, V266I, S269A, D298Y, R332A
light: not shown

Experiments:
[1] = biological target: T1, human FcγRIIa type R (131Arg) …; assay: SPR
[2] = biological target: T2, human FcγRIIb extracellular domain with …; assay: SPR Biacore, ratio of KDs
[3] = biological target: T3, human FcγRIIb extracellular domain with …; assay: SPR
[4] = biological target: T3, human FcγRIIb extracellular domain with …; assay: SPR; remark: listed apart in the source
[5] = biological target: T4, human FcγRIIb extracellular domain with …; assay: ratio of SPR KDs

Row | Binder | KD (IIb) of the parent polypeptide/KD (IIb) of the altered polypeptide [2] | KD (IIaH)/KD (IIb) [3] | KD (IIaR)/KD (IIb) [4] | other results
1 | B1 |  |  |  | Kd [1]: 830 nM
2 | B2 | 3.5 fold (parent IL6R-B3/IL6R-L) |  |  | 
3 | B3 |  | 466 | 20 | 
4 | B4 |  | 667 | 38 | 
5 | B5 |  |  |  | KD (IIaR)/KD (IIb) [5]: 38.3
6 | B6 | 2.7 fold (parent IL6R-B3/IL6R-L) |  |  | 
7 | B7 | 9.7 fold (parent IL6R-B3/IL6R-L) |  |  | 
8 | B8 |  |  |  | Kd [1]: 1300 nM
9 | B9 |  | 436 | 38.1 | 
10 | B10 | 2.1 fold (parent IL6R-B3/IL6R-L) |  |  | 
11 | B11 | 2.2 fold (parent IL6R-B3/IL6R-L) |  |  | 
12 | B12 | 3.9 fold (parent IL6R-B3/IL6R-L) |  |  | 
13 | B13 | 3.9 fold (parent IL6R-B3/IL6R-L) |  |  | 
14 | B14 |  | 962 | 26 | 
15 | B15 |  | 1230 | 64.4 | 
16 | B16 | 2.1 fold (parent IL6R-B3/IL6R-L) |  |  | 
17 | B17 |  | 655 | 44.2 | 
18 | B18 | 3.4 fold (parent IL6R-B3/IL6R-L) |  |  | 
19 | B19 | 2.8 fold (parent IL6R-B3/IL6R-L) |  |  | 
20 | B20 | 3.3 fold (parent IL6R-B3/IL6R-L) |  |  | 
21 | B21 |  | 856 | 41.5 | 
22 | B22 |  | 444 | 29.2 | 

Row | Binder | KD (IIb) of the parent polypeptide/KD (IIb) of the altered polypeptide [2] | KD (IIaH)/KD (IIb) [3] | KD (IIaR)/KD (IIb) [4] | other results
23 | B23 |  | 503 | 33.2 | 
24 | B24 | 2.8 fold (parent IL6R-B3/IL6R-L) |  |  | 
25 | B25 |  | 1030 | 28.9 | 
26 | B26 |  | 1240 | 50.6 | 
27 | B27 | 4 fold (parent IL6R-B3/IL6R-L) |  |  | 
28 | B28 | 2.6 fold (parent IL6R-B3/IL6R-L) |  |  | 
29 | B29 | 2.8 fold (parent IL6R-B3/IL6R-L) |  |  | 
30 | B30 | 2.9 fold (parent IL6R-B3/IL6R-L) |  |  | 
31 | B31 |  | 684 | 28.3 | 
32 | B32 |  | 352 | 28.5 | 
33 | B33 | 3.3 fold (parent IL6R-B3/IL6R-L) |  |  | 
34 | B34 |  | 168 | 22.8 | 
35 | B35 |  |  |  | KD (IIaR)/KD (IIb) [5]: 38.6
36 | B36 | 2.5 fold (parent IL6R-B3/IL6R-L) |  |  | 
37 | B37 |  | 525 | 29.1 | 
38 | B38 | 2.1 fold (parent IL6R-B3/IL6R-L) |  |  | 
39 | B39 |  | 438 | 26.6 | 
40 | B40 |  |  |  | Kd [1]: 120 nM
41 | B41 | 2.6 fold (parent IL6R-B3/IL6R-L) |  |  | 
42 | B42 |  | 658 | 18.5 | 
43 | B43 |  |  |  | KD (IIaR)/KD (IIb) [5]: 42.3
44 | B44 |  | 748 | 46.1 | 

Reference: patent US20230140797A1 (published 2023)
